Experimental data: patent US20260232831A1 (FRONTAIM BIOMEDICINES, published 2026)

T1: human Trop2 on the cell surface (A-431, ME-180, MDA-MB-468 cells) (human, UniProt P09758 27-323)
T1 construct: whole, on cells; Endogenous Trop2 on Trop2-positive tumour cell lines used in flow cytometry and cytotoxicity assays; also called TACSTD2; tumor-associated calcium signal transducer 2
T1 sequence (looked up): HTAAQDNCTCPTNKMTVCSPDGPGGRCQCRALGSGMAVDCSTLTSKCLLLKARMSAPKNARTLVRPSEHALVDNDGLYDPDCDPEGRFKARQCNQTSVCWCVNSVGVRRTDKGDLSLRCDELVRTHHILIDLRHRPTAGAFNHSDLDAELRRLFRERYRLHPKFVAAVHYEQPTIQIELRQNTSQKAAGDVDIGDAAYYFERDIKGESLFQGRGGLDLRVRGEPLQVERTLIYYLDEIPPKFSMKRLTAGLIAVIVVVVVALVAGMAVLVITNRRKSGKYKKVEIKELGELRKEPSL


Legend:
[1] = biological target: T2, human CD3 on Jurkat cell surface (human, UniProt P07766 23-207); assay: flow cytometry on Jurkat cells, AF488 goat anti-human IgG Fc detection
T2 construct: whole, on cells; also called cell surface CD3 of Jurkat
T2 sequence (P07766 23-207): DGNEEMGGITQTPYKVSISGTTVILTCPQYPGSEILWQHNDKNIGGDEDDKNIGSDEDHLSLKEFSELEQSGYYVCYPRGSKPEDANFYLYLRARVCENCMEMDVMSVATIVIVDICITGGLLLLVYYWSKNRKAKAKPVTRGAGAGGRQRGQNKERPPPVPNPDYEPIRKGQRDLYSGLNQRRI
Description: For CD3 binding, Jurkat cells were dispensed into a 96-well plate at 2×10⁵/well, and incubated with indicated agents at 4° C. for 45 min. After wash with PBS, cells were incubated with AF488 labeled goat anti-human IgG Fc. […] After wash with PBS, cells were incubated with AF488 labeled goat anti-human IgG Fe.
After wash with PBS, cells were incubated with a AF488 labeled goat anti-human IgG Fc secondary antibody at 4° C. for another 45 min.

[2] = biological target: T1, human Trop2 on the cell surface (A-431, …); assay: flow cytometry on A-431 cells, AF488 goat anti-human IgG Fc detection
Description: All incubations were 45 min at 4° C. plus washes with 1% BSA in PBS between incubations. Binding signal was measured by Attune™ N×T Acoustic Focusing Cytometer (ThermoFisher Scientific).

[3] = biological target: T1, human Trop2 on the cell surface (A-431, …); assay: flow cytometry on ME-180 cells, AF488 goat anti-human IgG Fc detection
Description: For CD3 binding, Jurkat cells were dispensed into a 96-well plate at 2×10⁵/well, and incubated with indicated agents at 4° C. for 45 min. After wash with PBS, cells were incubated with AF488 labeled goat anti-human IgG Fe. For Trop2 binding, ME-180 cells were dissociated from culture, dispensed into a 96-well plate at 2×10⁵/well, and incubated with indicated agents at 4° C. for 45 min. After wash with PBS, cells were incubated with AF488 labeled goat anti-human IgG Fc. Binding was analyzed by low cytometry using Attune N×T Flow Cytometer.
After wash with PBS, cells were incubated with a AF488 labeled goat anti-human IgG Fc secondary antibody at 4° C. for another 45 min. After two wash steps, binding was analyzed by flow cytometry using Attune N×T Flow Cytometer.

[4] = biological target: T1, human Trop2 on the cell surface (A-431, …); assay: cell-based or functional assay

binding result [1] | EC50 (read off the curve) [2] [nM] | EC50 (read off the curve) [3] [nM] | Binder | IC50, 60-hour MTS viability assay, BT-474 cells with human PBMCs (10:1) [4] [nM] | IC50, 60-hour MTS viability assay, HCT116 cells with human PBMCs (10:1) [4] [nM] | IC50, 60-hour MTS viability assay, MDA-MB-231 cells with human PBMCs (10:1) [4] [nM] | IC50, 60-hour MTS viability assay, MDA-MB-468 cells with human PBMCs (10:1) [4] [nM]
no binding (tested: 20.0 nM) | ~10 | ~6 | humanized anti-Trop2 antibody hL0125 (antibody, V domains shown, Variable regions were cloned into human IgG expression vectors to give a full-size humanized IgG; also called modular antibody hL0125) VL: DIQLTQSPAIMSASPGERVTMTCRASSSVSSSYLHWYQQRSGQSPKLLIYSTSNLASGVPARFSGSGSGTDYSLTISSLEAEDAATYYCQQYSGSPLTFGSGTKLEIKR VH: QVQLQESGGGLVKPGGSLKLSCAASGFTFSSYAMSWVRQTPDKRLEWVAEISSDGFYTYYPDTVTGRFTISRDNAKNTLYLQMSSLRSEDTAMYYCARDGNYVDYAMDYWGQGTSVTVSS |  |  |  | 
 | ~10 |  | chimeric anti-Trop2 antibody cL0125 (antibody, V domains shown, Chimeric antibody made from the murine L0125 VL and VH) VH: VKLQESGGGLVKPGGSLKLSCAASGFTFSSYAMSWVRQSPEKRLEWVAEISSDGFYTYYPDTVTGRFTISRDNAKNTLYLEMSSLRSEDTAMYYCARDGNYVDYAMDYWGQGTSVTVSS VL: DIQLTQSPAIMSASPGEKVTMTCRASSSVSSSYLHWYQQRSGASPKLWIYSTSNLASGVPARFSGSGSGTSYSLTISSVEAEDAATYYCQQYSGSPLTFGSGTKLEIKR |  |  |  | 
 |  | ~10 | bispecific antibody 3scFv×hL0125C (bispecific antibody, The AD2 of the scFv is docked on the DDD2 dimer and locked by disulfide bonds; the complex holds 2 heavy chains, 2 light chains and 1 scFv., hL0125 IgG with DDD2 inserted in the hinge of each heavy chain; The DDD2 dimer docks the AD2 of one anti-CD3 scFv (3scFv), giving a 2+1 format assembled intracellularly; also called Construct C; Format C) heavy: not shown light: DIQLTQSPAIMSASPGERVTMTCRASSSVSSSYLHWYQQRSGQSPKLLIYSTSNLASGVPARFSGSGSGTDYSLTISSLEAEDAATYYCQQYSGSPLTFGSGTKLEIKRTVAAPSVFIFPPSDEQLKSGTASVVCLLNNFYPREAKVQWKVDNALQSGNSQESVTEQDSKDSTYSLSSTLTLSKADYEKHKVYACEVTHQGLSSPVTKSFNRGEC scFv: not shown | ~0.02 | ~0.018 | ~0.013 | ~0.006
